A short description of the data set: yeast display, Sf9 membrane polyspecificity reagent, FACS + sequencing; frameworks hold sequencing errors. Put shortly: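 Nanobodies came from a synthetic yeast display library in Saccharomyces cerevisiae BJ5465, induced with galactose for 36–48 hours and stained for 1 hour at 4 °C with 10% biotinylated, detergent-solubilized Sf9 membrane reagent. Cells were enriched on streptavidin microbeads and then FACS-sorted, with low and high (top ~1%) gates set on anti-HA fluorescence for expression and streptavidin fluorescence for reagent binding. Each polyreactivity label reflects the gate a clone came from. Genes were amplified by colony PCR, sequenced by MiSeq 2 × 250 and filtered by CDR length.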
For the sequence “QVQLVESGGGLVQAGGSLRLSCAASGYTFYFYAMGWSRQAPGKEREFVAAIRSSGGRTYYADSVKGRFTISRDNAKNTVYLQMNSLKPVDTAVYYCAAAGYYYSVDGAGPRYDYWGQGTQVTVSS”, the “polyreactivity (PSR sort gate)” value was “low polyreactivity”.

Turning to “QVQLVESGGGLVQAGGSLRLSCAASGYTFYKYAMGWYRQAPGKEREFVADITQSGGSTYYADSVKGRFTISRDNAKNTVYLEMNSLKPEDTAVYYCNAAYSYRPDPKGYDYWGQGTQVTVSS”, the “polyreactivity (PSR sort gate)” value is on record as “low polyreactivity”.

With “QVQLVESGGGLVQAGGSLRLSCAASGYTFYPYAMGWYRQAPGKERELVAAISGGASTYYADSVKGRFTISRDNAKNTVYLHMNSLKPEDTAVYYCAVSVYTYVVWYVAATYDYWGQGTQVTVSS”, the “polyreactivity (PSR sort gate)” value was “low polyreactivity”.

Consider “QVQLVESGGGLVQAGGSLRLSCAASGYTFYRYAMGWYRQAPGKERELVATISRGGSTDYADSVKGRFTISRDNAKNTVYLQMNSLKPEDTAVYYCAARAFSRLTTFYYWGQGTQVTVSS”, for which the “polyreactivity (PSR sort gate)” value is “high polyreactivity”.

For the sequence “QVQLVESGGGLVQAGGSLRLSCAASGYTFYSNAMGWYRQAPGKERELVAVISRGGGTYYADSVKGRFTISRDNAKNTVYLQMNSLKPEDTAVYYCARRIGHGSRPYWLETWRYPYEYWGQGTQVTVSS”, the “polyreactivity (PSR sort gate)” value is recorded as “low polyreactivity”.

Regarding “QVQLVESGGGLVQAGGSLRLSCAASGYTFYVYAMGWYRQAPGKERELVAAISSDTGRTYYADSVKGRFTISRDNAKNTVYLQMNSLKPEDTAVYYCAKRRVYGGYDYWGQGTQVTVSS”, the “polyreactivity (PSR sort gate)” value is given as “low polyreactivity”.

Turning to “QVQLVESGGGLVQAGGSLRLSCAASGYTFYWNVMGWYRQAPGKERELVAVIDWSGGSTHYADSVKGRFTISRDNAKNTVYLQMNSLKPEDTAVYYCAAESVYTWYYQDDDDYWGQGTQVTVSS”, the “polyreactivity (PSR sort gate)” value is “low polyreactivity”.

In the case of “QVQLVESGGGLVQAGGSLRLSCAASGYTIESYGMGWYRQAPGKDREMVAAIDWSGGSTYYADSVKGRFTISRDNAKNTVYLQMNSLIPEDTAVYYCNRDSAGPGDVILAYTGNDYWGQGTQVTVSS”, the “polyreactivity (PSR sort gate)” value is given as “low polyreactivity”.

Turning to “QVQLVESGGGLVQAGGSLRLSCAASGYTIRANAMGWYRQAPGKERELVAAISRSGGSTYYADSVKGRFTISRDNAKNTVYLQMNSLKPEDTAVYYCNTRQQYQFNYWGQGTQVTVSS”, the “polyreactivity (PSR sort gate)” value is “high polyreactivity”.

For the sequence “QVQLVESGGGLVQAGGSLRLSCAASGYTISRYAMGWYIQAHGKERQLVAAISSRGGSTYYADSVKGRFTISRDNAKNTVYLQMNSLNPEDTADYYWAEDYGVGYGIVGSYYWGQGTQVTVSS”, the “polyreactivity (PSR sort gate)” value was “high polyreactivity”.

With “QVQLVESGGGLVQAGGSLRLSCAASGYTITQNAMGWYRQAPGKERELVASITSGGSTDYADSVKGRFTISRDNAKNTVYLQMNSLKPEDTAVYYCAAGTATDVASIGATKDYDYWGQGTQVTVSS”, the “polyreactivity (PSR sort gate)” value is given as “low polyreactivity”.

In the case of “QVQLVESGGGLVQAGGSLRLSCAASGYTIYYYAMGWYRQAPGKERELVAVITSRGPRTYYADSVKGRFTISRDNAKNTVYLQMNSLKPEDTAVYYCNKARGVAYDWGQGTQVTVSS”, the “polyreactivity (PSR sort gate)” value was “high polyreactivity”.

As for “QVQLVESGGGLVQAGGSLRLSCAASGYTLGPYAMGWYRQAPGKERELVATISSAGNTNYADSVKGRFTISRDNAKNTVYLQMNSLKPEDTAVYYCAAAIWYGFGGASGGTYYYWGQGTQVTVSS”, the “polyreactivity (PSR sort gate)” value is listed as “high polyreactivity”.

For “QVQLVESGGGLVQAGGSLRLSCAASGYTLNTYAMGWYRQAPGKERELVAAITWSGGRTYYADSVKGRFTISRDNAKNTVYLQMNSLKPEDTAVYYCNAVWRRSTGDSGYWGQGTQVTVSS”, the “polyreactivity (PSR sort gate)” value was “high polyreactivity”.

As to “QVQLVESGGGLVQAGGSLRLSCAASGYTRFYAMGWYRHAPGKERELVAAISSSGGTTYYADSVKGRLTISRDNAKNTVYLQMNSLKPDDSAVYYCAKYVSYCRTLYEYWGQGTQVTVSS”, the “polyreactivity (PSR sort gate)” value is on record as “high polyreactivity”.

Regarding “QVQLVESGGGLVQAGGSLRLSCAASGYTSNMGWYRQAPGKERELVAAITSGGDGTYYADSVKGRFTISRDNAKNTVYLQMNSLKPEDTAVYYCAKRGRDYNYGRAGYYWGQGTQVTVSS”, the “polyreactivity (PSR sort gate)” value is “low polyreactivity”.
